Assay results taken from PMC3293397 (Biochemistry, 2012).

Biological target: the molecule itself
Test: crystal structure

B1: S. elongatus KaiC E318A mutant protein (enzyme, Synechococcus elongatus PCC 7942, UniProt Q79PF4 1-519, looked up)
chain: MTSAEMTSPNNNSEHQAIAKMRTMIEGFDDISHGGLPIGRSTLVSGTSGTGKTLFSIQFLYNGIIEFDEPGVFVTFEETPQDIIKNARSFGWDLAKLVDEGKLFILDASPDPEGQEVVGGFDLSALIERINYAIQKYRARRVSIDSVTSVFQQYDASSVVRRELFRLVARLKQIGATTVMTTERIEEYGPIARYGVEEFVSDNVVILRNVLEGERRRRTLEILKLRGTSHMKGEYPFTITDHGINIFPLGAMRLTQRSSNVRVSSGVVRLDEMCGGGFFKDSIILATGATGTGKTLLVSRFVENACANKERAILFAYAESRAQLLRNAYSWGMDFEEMERQNLLKIVCAYPESAGLEDHLQIIKSEINDFKPARIAIDSLSALARGVSNNAFRQFVIGVTGYAKQEEITGLFTNTSDQFMGAHSITDSHISTITDTIILLQYVEIRGEMSRAINVFKMRGSWHDKAIREFMISDKGPDIKDSFRNFERIISGSPTRITVDEKSELSRIVRGVQEKGPES
modifications: phosphothreonine at T432 in five of the six subunits; no S431 phosphorylated
B1: binds.
